Among the data in article PMC6700365, “Expression and Characterization of Carotenoid Cleavage Oxygenases From Herbaspirillum seropedicae and Rhodobacteraceae bacterium Capable of Biotransforming Isoeugenol and 4-Vinylguaiacol to Vanillin” (Frontiers in Microbiology, 2019) are Km and Vmax values, retold here.

Holding throughout (test): HPLC of vanillin formed
Substrate in data set [1]: CC=Cc1ccc(O)c(OC)c1
The class given is biochemical, Paracoccaceae bacterium. As to conditions: measured under optimal conditions (pH 9.0, 35 °C), 10% glycerol. The text has this: (§1) HPLC of vanillin formed on RbCCO

Substrate in data set [2]: C=Cc1ccc(O)c(OC)c1
The class given is biochemical, Paracoccaceae bacterium. As to conditions: measured under optimal conditions (pH 9.0, 35 °C), 10% glycerol.
From the text: as §1

Substrate in data set [3]: CC=Cc1ccc(O)c(OC)c1
In kind it is biochemical, Herbaspirillum seropedicae. As to conditions: measured under optimal conditions (pH 7.0, 40 °C), 10% glycerol. The text has this: (§2) HPLC of vanillin formed on HsCCO

Substrate in data set [4]: C=Cc1ccc(O)c(OC)c1
In kind it is biochemical, Herbaspirillum seropedicae. As to conditions: measured under optimal conditions (pH 7.0, 40 °C), 10% glycerol.
From the text: as §2

B1: RbCCO (Paracoccaceae bacterium) (protein)
chain: MTRPFPKTPEFSGSLYRPARFEGSVFDLEVEGRVPEDIHGTFFQVAPDPQFPPMRGNDIFFNGDGAVHAFRFANGAVDFQRRYVMTDRLKAQRAERESLFGLYRNGYTNDPRADGVHMGTANTNVVQHNGRLLALKEDSPPYALDPVTLETHGLFDFDGQLTSPTFTAHPKFDPETGAMLCFGYEAKGEATPDIVYYEIDSQGRKQREIWLRGPYAAMIHDFAVTRNYIIFPLMPLTPDLDRIRKGGNHFEWQPGLEQVFGVLPRDGDGTDVRWFTAPNGFQGHTLNAFDDGRGRIFVDMPVTDGNIFYFFPQSDGHVPPPETLSSRMMRWTFDMNNPGNALSMAPITDFACEFPKCDPRYSGHEYRHGFVIGMDMTRPFDAERLGAPPFQFFNLLSHVDVATRRVKSWFADAQTCFQEPVFVPRSANAPEGEGWVIALANRLVDQTTDLVILDAQHMDEGPVAVVHLPVRLRMSLHGSWVPAAA
notes: codon-optimized gene, BamHI/XhoI in pET-29a(+), His-tagged, co-expressed with GroEL/GroES (pGro7) in E. coli BL21(DE3), Ni-NTA, about 55 kDa on SDS-PAGE
What is called Km is the concentration of substrate that gives half-maximal velocity. What is called Vmax is the top rate of the reaction or transport when substrate is in excess. As for B1, in “HPLC of vanillin formed [1]”, the Km amounted to 2240 µM and the Vmax is 0.0765 µmol/min/mg. Also, in “HPLC of vanillin formed [2]”, the Km turned out to be 850 µM and the Vmax was found to be 0.02 µmol/min/mg.

B2: HsCCO (Herbaspirillum seropedicae) (protein)
chain: MSMQYPATPEFQGMYRPSRVEASVQALEVVGQLPAQLQGCFYQVAPDPAYPPMLGQDIFFNGDGMVSAFRFGQGQVSLTRRYVQTERLKAQRQAGRSLNGIYRNIYTNAPEAASDNTTANTTVIKHAGVLLALKEDSLPYAMDPVTLETRGLWDFHGQVKSATFTAHPKICPQSGSMLCFAYEAKGDGTPDIAYYEIDAAGKLIRETWFQAPYAAMIHDFAVTENYVIFPIIPLTVDVERMKRGGQHFQWQPDLPQLFGILPRAGDAADVRWFYGPADGFQGHTLNAYELGRKLILDMPVTSGNVFYFFPQADGFVPSPETLKSGLARWTFDLDADNDQVMPEPLTQFPCEFPRCDERYSGRPYQHGFMLAFDPTLPFDAAALGAPPFQFFNQLAHVNVRTGETRTWYAGDAHCFQEPVFVPRSADAPEGDGFLLSLLNDLRSGATELVILDTHDLSAGPVARVQIPLRMRMSLHGNWSSD
notes: codon-optimized gene, NdeI/XhoI in pET-29a(+), His-tagged, E. coli BL21(DE3), Ni-NTA, about 55 kDa on SDS-PAGE
Consider B2, for which, in the data set “HPLC of vanillin formed [3]”, the Km came to 1550 µM and the Vmax stood at 0.0741 µmol/min/mg. For the same protein, in “HPLC of vanillin formed [4]”, the Km was 1650 µM and the Vmax came to 0.0279 µmol/min/mg.
